Measurements published in patent US20180092961.

What was measured:
[1] = target: murine histone H4 released from activated RAW264.7 macrophages (UniProt P62806)
[2] = system: murine histone H2A released from activated RAW264.7 macrophages
[3] = target: calf thymus histone H3 (Roche) (UniProt P68432)
[4] = target: calf thymus histone H4 (Roche) (UniProt P62803)
[5] = target: murine histone H3 (UniProt P68433)

human recombinant activated protein C (Xigris)
cleavage, Western blot of conditioned medium [1]: histone H4 was released into the conditioned medium and was cleaved by APC
new protein bands in conditioned medium in the presence of APC, Edman sequencing [1]: N-terminal sequence of the 10 kD band protein which matches the murine histone H4 internal sequence (Val21-Ile34)
new protein bands in conditioned medium in the presence of APC, MS/MS after tryptic digestion [2]: three peptide sequences ... in this protein band that matchs the murine histone H2A protein sequence (amino acids 21-29, 82-88 and 100-118)
cleavage in a purified system, SDS-PAGE [3]: APC cleaved histone H3 and H4 in a dose dependent fashion
cleavage in a purified system, SDS-PAGE [4]: APC cleaved histone H3 and H4 in a dose dependent fashion
cleavage, SDS-PAGE [4]: Purified histone H4 was also cleaved by APC and a cluster of 4-7 KD fragments could be found on SDS-PAGE
new protein bands in conditioned medium in the presence of APC, Edman sequencing [5]: The N-terminal sequence of the 13 kD band protein was KSAPATGGV (SEQ ID NO:15) which matches the murine histone H3 internal sequence (Lys27-Lys36)
